The values that follow come from publication PMC8166090, “Improvements of the productivity and saccharification efficiency of the cellulolytic β-glucosidase D2-BGL in Pichia pastoris via directed evolution” (Biotechnology for Biofuels, 2021).

Residue numbers refer to the chain shown, from its start. In names and notes the source's numbering stands.

The target of data set [1] is T1, D2-BGL (WT D2; Pp D2-BGL) (Chaetomella raphigera, UniProt A0A068FT77, D224G/F256M/Y260D).
T1 construct: 722 residues, 76 kDa theoretical; alpha-mating factor secretion signal upstream (pGAPZalphaC-D2); expressed in Pichia pastoris SMD 1168; glycosylated
T1 sequence (A0A068FT77 entry or part of it D224G/F256M/Y260D): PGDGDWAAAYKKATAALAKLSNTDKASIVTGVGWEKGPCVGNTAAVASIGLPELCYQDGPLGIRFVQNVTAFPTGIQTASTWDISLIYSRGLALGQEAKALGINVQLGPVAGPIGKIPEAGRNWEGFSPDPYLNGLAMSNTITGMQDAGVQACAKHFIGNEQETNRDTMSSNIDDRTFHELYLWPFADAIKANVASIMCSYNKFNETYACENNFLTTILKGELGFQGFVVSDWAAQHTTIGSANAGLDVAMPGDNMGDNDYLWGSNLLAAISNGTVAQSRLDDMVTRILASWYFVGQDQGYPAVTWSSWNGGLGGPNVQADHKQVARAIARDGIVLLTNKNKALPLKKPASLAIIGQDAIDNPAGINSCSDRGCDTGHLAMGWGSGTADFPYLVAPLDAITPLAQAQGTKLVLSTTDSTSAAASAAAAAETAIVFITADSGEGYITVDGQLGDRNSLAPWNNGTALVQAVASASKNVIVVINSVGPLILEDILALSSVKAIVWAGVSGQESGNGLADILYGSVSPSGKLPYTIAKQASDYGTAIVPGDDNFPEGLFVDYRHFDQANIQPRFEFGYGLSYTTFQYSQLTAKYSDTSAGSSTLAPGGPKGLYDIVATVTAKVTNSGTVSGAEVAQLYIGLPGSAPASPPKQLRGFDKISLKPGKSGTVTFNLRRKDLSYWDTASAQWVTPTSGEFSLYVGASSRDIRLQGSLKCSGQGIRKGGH
In words: inhibition of pNPG hydrolysis with […] glucose. It counts as biochemical. The note with it: pNPG as substrate; 50 mM NaOAc pH 5, 55 °C; product inhibition; read-out: Mut M.

The target in data set [2] is T2, D2-BGL (WT D2; Pp D2-BGL) (Chaetomella raphigera, UniProt A0A068FT77).
T2 construct: 722 residues, 76 kDa theoretical; alpha-mating factor secretion signal upstream (pGAPZalphaC-D2); expressed in Pichia pastoris SMD 1168; glycosylated
T2 sequence (A0A068FT77 1-722): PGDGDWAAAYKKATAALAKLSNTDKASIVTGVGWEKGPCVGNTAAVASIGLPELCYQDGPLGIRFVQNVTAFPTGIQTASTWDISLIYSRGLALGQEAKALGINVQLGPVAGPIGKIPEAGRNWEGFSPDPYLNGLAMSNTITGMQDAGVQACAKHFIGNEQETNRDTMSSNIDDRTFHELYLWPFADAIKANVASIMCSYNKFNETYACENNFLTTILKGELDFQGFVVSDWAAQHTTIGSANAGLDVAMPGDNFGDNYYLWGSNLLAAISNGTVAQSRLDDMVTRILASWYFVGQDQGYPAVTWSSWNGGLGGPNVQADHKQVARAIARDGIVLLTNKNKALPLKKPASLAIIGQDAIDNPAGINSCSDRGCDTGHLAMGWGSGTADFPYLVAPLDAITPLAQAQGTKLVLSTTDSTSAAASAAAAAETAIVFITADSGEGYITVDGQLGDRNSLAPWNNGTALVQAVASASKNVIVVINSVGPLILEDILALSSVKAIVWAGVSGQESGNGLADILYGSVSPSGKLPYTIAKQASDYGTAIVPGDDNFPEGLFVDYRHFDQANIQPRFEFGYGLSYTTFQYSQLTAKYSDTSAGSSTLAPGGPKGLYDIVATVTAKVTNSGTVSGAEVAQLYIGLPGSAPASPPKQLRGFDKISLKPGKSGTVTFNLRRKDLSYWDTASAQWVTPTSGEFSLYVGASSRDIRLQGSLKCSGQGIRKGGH
Put plainly: inhibition of pNPG hydrolysis with […] glucose. It counts as biochemical. The note with it: pNPG as substrate; 50 mM NaOAc pH 5, 55 °C; product inhibition.

Data set [3] deals with T1, D2-BGL (WT D2; Pp D2-BGL). Put plainly: p-nitrophenol release at […] nm, […] pNPG, substrate inhibition fit. The note with it: 50 mM NaOAc pH 5, 55 °C. It is filed as biochemical.
Substrate in the data set “purified protein”: O=[N+]([O-])c1ccc(O[C@@H]2O[C@H](CO)[C@@H](O)[C@H](O)[C@H]2O)cc1
Put plainly: purified protein. The conditions noted are these: 50 mM NaOAc pH 5, 55 °C.

As for `OC[C@H]1OC(O)[C@H](O)[C@@H](O)[C@@H]1O` (stereo partly shown) [glucose], the results for the Ki in data set [1] and in data set [2] were 1590 ± 70 µM and 3230 ± 1080 µM, respectively. On to `O=[N+]([O-])c1ccc(O[C@@H]2O[C@H](CO)[C@@H](O)[C@H](O)[C@H]2O)cc1` [pNPG, p-nitrophenyl β-D-glucopyranoside], for which, in data set [3], the “kinetic constant from substrate inhibition fit” value was 3.21 ± 0.56 mM.

B1: D2-BGL (WT D2; Pp D2-BGL) (Chaetomella raphigera) (protein)
chain: T2 sequence (A0A068FT77 1-722)
Consider B1, for which, in “purified protein”, the Km worked out at 310 ± 140 µM and the Vmax was determined as 575 µM/min.

B2: D2-BGL (WT D2; Pp D2-BGL) (Chaetomella raphigera; D224G/F256M/Y260D) (protein)
chain: T2 sequence (A0A068FT77 1-722) with D224G, F256M, Y260D
B2: in “purified protein”, the Km is 180 ± 50 µM and the Vmax amounted to 374 µM/min.

The term Km denotes the substrate concentration at which the rate is half of its maximum. For orientation: Vmax means the top rate of the reaction or transport when substrate is in excess.
